Experimental data: patent US20220185900A1 (Regeneron, published 2022)

B1: H4H8066P (antibody, human IgG4, V domains shown)
VH: EVQLVESGGGLVQPGGSLRLSCEASGFTFSRYAMTWVRQAPGKGLEWVSGISGSGGSTFYVDSLQGRFTLSRDNSKHTLFLQMNSLRAEDTAIYYCAKENTYGHFDYWGQGTLVTVSS
VL: DIQLTQSPSFLSASVGDRVTITCWASQDISTYLAWYQQKPGKAPQVLIYAASSLQYGVPSRFSGSGSGTEFTLTITSLQPEDFATYYCQQLIGYPYIFGQGTKLEIK
notes: human IgG4 Fc (H4H prefix)
B2: H4H8080P (antibody, human IgG4, V domains shown)
VH: EVQLVESGGGLVQSGGSLRLSCVASGFTFSTYAMTWVRQAPGRGLEWVSAISGSGASTYYADSLKGRFTVSRDNSKNTLYLQMNSLRAEDTAVYYCSKDHRNYDSDYDMDVWGQGTTVTVSS
VL: DIQMTQSPSSLSASVGDRVTITCRASQGIRNYLGWYQQKPGKAPKRLIYTASSLQSGVPSRFRGSGSGTEFTLTISSLQPEDFATYYCLQHNSYPYTFGQGTKLEIK
notes: human IgG4 Fc (H4H prefix)
B3: H4H8083P (antibody, human IgG4, V domains shown)
VH: QVQLVESGGGVVQPGRSLRLSCAASGFTFNNYVMHWVRQAPGKGLEWVALIWYDGSNKYYADSVKGRFTISRDNSKNALNLQMNSLRAEDTAVYFCARVSIAARNYYYGGLDVWGQGTTVTVSS
VL: EIVLTQSPGTLSLSPGERATLSCRASQSVSSTYLAWYQQKPGQAPRLLIYGASSRATGIPDRFSGSGSGTDFTLTISRLEPEDFAVYYCQHYGGSPLTFGGGTKVEIK
notes: human IgG4 Fc (H4H prefix)
B4: H4H8084P (antibody, human IgG4, V domains shown)
VH: QVQLVESGGGVVQPGRSLRLSCEASGFTFRNYGMHWVRQAPGKGLDWVSTIYYDGSDEYYSDSVKGRFTISRDNSKNTLYLQMNSLRAEDTAVYYCARDPPSFRYFDYWGQGTLVTVSS
VL: DIQMTQSPSTLSASVGDRVTITCRASQSIRSWLTWYQQKPGKAPKVLIYKASTLERGVPSRFSGSGSGTEFTLTISSLQPEDFATYYCHQYSSYSYTFGQGTKLEIK
notes: human IgG4 Fc (H4H prefix)
B5: H4H8067P (antibody, human IgG4, V domains shown)
VH: QVQLVESGGGVVQPGRSLRLSCVASGFTFSNYGMHWVRQAPGKGLEWVALIWYDGSNKYFADSVKGRFTISRDNSKRMMFLEMNSLRAEDTAIYYCTRDRLFDFWGQGTLVTVSS
VL: AIQMTQSPSSLSASVGDRVSITCRASQDIRHDLGWFHQKPGKAPKLLIYAASTLQSGVPSRFGGSGSGTDFTLTITSLQPEDFGTYYCLQDYNYPATFGQGTRLEIK
notes: human IgG4 Fc (H4H prefix)
B6: H4H8085P (antibody, human IgG4, V domains shown)
VH: QVQLVESGGGVVQPGRSLRLSCTASGFTFDNYGMHWVRQAPGKGLEWVAVISYDGSNTFYADSVKGRFTISRDNSKNALYLQMNSLRAEDTAVYYCAKDLEFDILIGYPFDSWGRGTLVTVSS
VL: DIQLTQSPSFLSASVGDRVTITCWASQDISRYLAWYQQKPGKAPNLLIYAASTLQSGVPSRFSGSGSGTEFTLTINSLQPEDFATYYCQQLFSYPRTFGQGTKVEIK
notes: human IgG4 Fc (H4H prefix)
B7: H2M7086N (antibody, mouse IgG2, V domains shown)
VH: QVQLVESGGGVVQPGRSLRLSCVVSGFTFSNYGMHWVRQGPGRGLEWLALIWYDGSDKYYAESVRGRFTISRDNSKNTVYLQMNSLRAEDTAMYYCTRDRIFDYWGQGTLVTVSS
VL: AIQMTQSPSSLSASVGDRVTITCRASQDIRNDLGWYQHNPGKAPNLLIYAASTLQIGVPSRFRGSGSGTDFTLTISSLQPEDFATYYCLQDFDYPLSFGGGTKVEIR
notes: human variable domains with mouse IgG2 Fc (H2M prefix)
B8: H4H7086N (antibody, human IgG4, V domains shown)
VH: B7 VH
VL: B7 VL
notes: human IgG4 Fc form of 7086N; also called H4H7086P

How the values were obtained:
hRET.mmh [1] = biological target: T1, hRET.mmh (human, UniProt P07949 29-635, biotinylated in the ELISA of Example 4 (biot-hRET.mmh); not in the SPR of Example 3); test: competition sandwich ELISA: 1 nM biot-hRET.mmh + antibody, plate-coated GDNF/GFRα1 co-complex
T1 construct: also called biot-hRET.mmh; soluble monomeric human RET
Method: The ability of anti-RET antibodies to block the binding of human RET to pre-complexed plate bound GDNF:GFRα1 was assessed using a competition sandwich ELISA.
Antibody-RET mixtures were incubated for 1 hour at RT and then transferred to microtiter plates previously coated with the hGDNF/hGFRα1 co-complex. Binding was allowed to proceed for 1 hr at RT followed by extensive washing. […] Plates were read at 450 nm and data analysis used a sigmoidal dose-response model within Prism™ software.
The absorbance values of the wells containing the highest concentration for each antibody were used to determine the blocking percent at maximum concentration antibody tested.

[2] = biological target: T2, Macaca fascicularis (mf) RET.mmh (Macaca fascicularis); test: SPR Biacore T200, mAb capture, 37 C
T2 construct: also called monkey RET
T2 chain: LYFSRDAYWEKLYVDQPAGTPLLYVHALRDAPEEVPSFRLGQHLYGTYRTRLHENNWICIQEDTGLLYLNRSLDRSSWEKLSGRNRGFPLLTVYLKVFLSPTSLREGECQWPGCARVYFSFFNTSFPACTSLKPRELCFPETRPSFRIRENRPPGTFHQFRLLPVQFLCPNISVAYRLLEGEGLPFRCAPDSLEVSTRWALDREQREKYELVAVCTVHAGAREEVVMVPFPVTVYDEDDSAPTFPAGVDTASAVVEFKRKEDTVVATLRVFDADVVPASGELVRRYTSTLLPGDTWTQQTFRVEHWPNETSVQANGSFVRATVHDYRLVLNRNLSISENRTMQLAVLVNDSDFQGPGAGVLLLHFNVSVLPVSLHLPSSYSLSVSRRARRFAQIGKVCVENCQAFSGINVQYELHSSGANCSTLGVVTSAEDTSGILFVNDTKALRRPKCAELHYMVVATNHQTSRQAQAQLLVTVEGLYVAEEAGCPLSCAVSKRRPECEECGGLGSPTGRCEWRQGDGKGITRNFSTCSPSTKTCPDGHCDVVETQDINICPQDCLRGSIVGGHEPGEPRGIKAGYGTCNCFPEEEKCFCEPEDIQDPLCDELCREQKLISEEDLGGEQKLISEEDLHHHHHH
Method: (§1) Binding affinities and kinetic constants of human anti-RET antibodies were determined by surface plasmon resonance (Biacore T200) at […] (Tables 2-3). […] Binding equilibrium dissociation constants (KD) and dissociative half-lives (t_{1/2}) were calculated from the kinetic rate constants as: KD [M]=kd/kₐ; and t_{1/2}(min)=(ln2/(60*kd). Calculations were performed using BiacoreT200 evaluation software v1.0.

hRET.mmh [3] = biological target: T1, hRET.mmh; test: SPR Biacore T200, mAb capture, 37 C
Method: as §1

hRET.mFc [4] = biological target: T3, hRET.mFc (human); test: SPR Biacore T200, mAb capture, 37 C
T3 construct: also called dimeric human RET
Method: as §1

[5] = biological target: T2, Macaca fascicularis (mf) RET.mmh; test: SPR Biacore T200, mAb capture, 25 C
Method: as §1

hRET.mmh [6] = biological target: T1, hRET.mmh; test: SPR Biacore T200, mAb capture, 25 C
Method: as §1

hRET.mFc [7] = biological target: T3, hRET.mFc; test: SPR Biacore T200, mAb capture, 25 C
Method: as §1

Row | Binder | % Max Blocking (hRET.mmh [1]) | IC50 (hRET.mmh [1]) | Kd [2] | koff [2] | Kd (hRET.mmh [3]) | koff (hRET.mmh [3]) | kon (hRET.mmh [3]) | t½ (hRET.mmh [3]) | Kd (hRET.mFc [4]) | koff (hRET.mFc [4]) | kon (hRET.mFc [4]) | t½ (hRET.mFc [4]) | Kd (hRET.mmh [6]) | koff (hRET.mmh [6]) | kon (hRET.mmh [6]) | t½ (hRET.mmh [6]) | Kd (hRET.mFc [7]) | koff (hRET.mFc [7]) | kon (hRET.mFc [7]) | t½ (hRET.mFc [7]) | also measured
1 | B1 | 57% | 0.41 nM | 39.4 nM | 0.00323 s⁻¹ | 5.43 nM | 0.00106 s⁻¹ | 195000 M⁻¹ s⁻¹ | 11 min | 1.28 nM | 0.000335 s⁻¹ | 262000 M⁻¹ s⁻¹ | 34 min | 2.02 nM | 0.000257 s⁻¹ | 127000 M⁻¹ s⁻¹ | 45 min | 0.58 nM | 0.00012 s⁻¹ | 207000 M⁻¹ s⁻¹ | 96 min | kon [2]: 81900 M⁻¹ s⁻¹; t½ [2]: 4 min; Kd [5]: 13.7 nM; koff [5]: 0.000882 s⁻¹; kon [5]: 64300 M⁻¹ s⁻¹; t½ [5]: 13 min
2 | B2 | 82% | < 0.25 nM | – | – | 9.35 nM | 0.00267 s⁻¹ | 285000 M⁻¹ s⁻¹ | 4 min | 3.98 nM | 0.00107 s⁻¹ | 269000 M⁻¹ s⁻¹ | 11 min | 2.38 nM | 0.000502 s⁻¹ | 211000 M⁻¹ s⁻¹ | 23 min | 1.32 nM | 0.000242 s⁻¹ | 183000 M⁻¹ s⁻¹ | 48 min | binding result [5]: no binding
3 | B3 | 95% | < 0.25 nM | 14.2 nM | 0.004 s⁻¹ | 9.04 nM | 0.00255 s⁻¹ | 282000 M⁻¹ s⁻¹ | 5 min | 3.02 nM | 0.0008 s⁻¹ | 264000 M⁻¹ s⁻¹ | 14 min | 2.52 nM | 0.000484 s⁻¹ | 192000 M⁻¹ s⁻¹ | 24 min | 1.14 nM | 0.000224 s⁻¹ | 197000 M⁻¹ s⁻¹ | 52 min | kon [2]: 283000 M⁻¹ s⁻¹; t½ [2]: 3 min; Kd [5]: 3.44 nM; koff [5]: 0.000711 s⁻¹; kon [5]: 207000 M⁻¹ s⁻¹; t½ [5]: 16 min
4 | B4 | 96% | < 0.25 nM | 1.76 nM | 0.00178 s⁻¹ | 1.56 nM | 0.00165 s⁻¹ | 1.06e+06 M⁻¹ s⁻¹ | 7 min | 0.809 nM | 0.00085 s⁻¹ | 1.05e+06 M⁻¹ s⁻¹ | 14 min | 0.518 nM | 0.000375 s⁻¹ | 723000 M⁻¹ s⁻¹ | 31 min | 0.284 nM | 0.000204 s⁻¹ | 720000 M⁻¹ s⁻¹ | 57 min | kon [2]: 1.01e+06 M⁻¹ s⁻¹; t½ [2]: 6 min; Kd [5]: 0.565 nM; koff [5]: 0.000393 s⁻¹; kon [5]: 695000 M⁻¹ s⁻¹; t½ [5]: 29 min
5 | B5 | 95% | < 0.25 nM | 196 nM | 0.0603 s⁻¹ | 7.31 nM | 0.00116 s⁻¹ | 159000 M⁻¹ s⁻¹ | 10 min | 2.24 nM | 0.000458 s⁻¹ | 204000 M⁻¹ s⁻¹ | 25 min | 2.12 nM | 0.000235 s⁻¹ | 111000 M⁻¹ s⁻¹ | 49 min | 0.94 nM | 0.000158 s⁻¹ | 168000 M⁻¹ s⁻¹ | 73 min | kon [2]: 307000 M⁻¹ s⁻¹; t½ [2]: 0.2 min; Kd [5]: 385 nM; koff [5]: 0.0415 s⁻¹; kon [5]: 108000 M⁻¹ s⁻¹; t½ [5]: 0.3 min
6 | B6 | 96% | < 0.25 nM | 8.3 nM | 0.00126 s⁻¹ | 6.23 nM | 0.000897 s⁻¹ | 144000 M⁻¹ s⁻¹ | 13 min | 5.5 nM | 0.00055 s⁻¹ | 99000 M⁻¹ s⁻¹ | 21 min | 2.34 nM | 0.000187 s⁻¹ | 80100 M⁻¹ s⁻¹ | 62 min | 1.33 nM | 0.000125 s⁻¹ | 94000 M⁻¹ s⁻¹ | 92 min | kon [2]: 152000 M⁻¹ s⁻¹; t½ [2]: 9 min; Kd [5]: 3.4 nM; koff [5]: 0.000225 s⁻¹; kon [5]: 66000 M⁻¹ s⁻¹; t½ [5]: 51 min
7 | B7 | 96% | 0.33 nM | – | – | – | – | – | – | – | – | – | – | – | – | – | – | – | – | – | – | –
8 | B8 | 97% | 0.39 nM | – | – | – | – | – | – | – | – | – | – | – | – | – | – | – | – | – | – | –
